Measurements from patent US8440629B2.
Read-outs that look alike come from different tables or passages of the source. Positions of bridges follow the written chain, without caps; N, C: chain ends. No end group written: not given here.

Legend:
[1] = molecular target: recombinant human LRP1 ligand binding cluster II (human); experiment: competition ELISA, inhibitor pre-incubated with immobilised LRP1 cluster II before washing; competitor ligand RAP d3
[2] = molecular target: recombinant human LRP1 ligand binding cluster II (human); experiment: competition ELISA on immobilised LRP1 cluster II; competitor ligand RAP d3 (2 nM)
[3] = molecular target: recombinant human LRP1 ligand binding cluster II (human); experiment: solid-phase binding assay, immobilised receptor
LRP1 CR3-5 (human) [4] = experiment: phage panning of a RAP library randomised at 256 and 270 on immobilised LRP1 CR3-5
[5] = molecular target: recombinant human LRP1 ligand binding cluster II (human); experiment: solid-phase binding assay, immobilised receptor, streptavidin-HRP detection, EDTA-corrected
MAT CR23 (human) [6] = experiment: solid-phase binding assay (FIG. 9); target not given, MatRAP1 was selected on MAT CR23
8D6 CR12 (human) = experiment: solid-phase binding assay (FIG. 10)
MAT CR23 (human) [7] = experiment: solid-phase binding assay, immobilised CR protein, anti-RAP detection
LRP1 CR3-5 (human) [8] = experiment: as above
LRP2 CR89 (human) [9] = molecular target: LRP2 CR89 (human) (UniProt P98164); experiment: as above
LRP2 CR3536 (human) = LRP2 CR3536 (human) (UniProt P98164); experiment: as above
LRP2 CR34-36 (human) = LRP2 CR34-36 (human) (UniProt P98164); experiment: as above
LRP1 CR3-5 (human) [10] = experiment: as above; remark: listed apart in the source
LRP2 CR89 R1088D (human) = LRP2 CR89 R1088D (human) (UniProt P98164); experiment: solid-phase binding assay, immobilised mutant CR protein
LRP2 CR89 (human) [11] = molecular target: LRP2 CR89 (human) (UniProt P98164); experiment: solid-phase binding assay, immobilised CR protein, anti-RAP detection; remark: listed apart in the source

MAT CR23 (human), sequence (Q9Y5Y6 whole entry): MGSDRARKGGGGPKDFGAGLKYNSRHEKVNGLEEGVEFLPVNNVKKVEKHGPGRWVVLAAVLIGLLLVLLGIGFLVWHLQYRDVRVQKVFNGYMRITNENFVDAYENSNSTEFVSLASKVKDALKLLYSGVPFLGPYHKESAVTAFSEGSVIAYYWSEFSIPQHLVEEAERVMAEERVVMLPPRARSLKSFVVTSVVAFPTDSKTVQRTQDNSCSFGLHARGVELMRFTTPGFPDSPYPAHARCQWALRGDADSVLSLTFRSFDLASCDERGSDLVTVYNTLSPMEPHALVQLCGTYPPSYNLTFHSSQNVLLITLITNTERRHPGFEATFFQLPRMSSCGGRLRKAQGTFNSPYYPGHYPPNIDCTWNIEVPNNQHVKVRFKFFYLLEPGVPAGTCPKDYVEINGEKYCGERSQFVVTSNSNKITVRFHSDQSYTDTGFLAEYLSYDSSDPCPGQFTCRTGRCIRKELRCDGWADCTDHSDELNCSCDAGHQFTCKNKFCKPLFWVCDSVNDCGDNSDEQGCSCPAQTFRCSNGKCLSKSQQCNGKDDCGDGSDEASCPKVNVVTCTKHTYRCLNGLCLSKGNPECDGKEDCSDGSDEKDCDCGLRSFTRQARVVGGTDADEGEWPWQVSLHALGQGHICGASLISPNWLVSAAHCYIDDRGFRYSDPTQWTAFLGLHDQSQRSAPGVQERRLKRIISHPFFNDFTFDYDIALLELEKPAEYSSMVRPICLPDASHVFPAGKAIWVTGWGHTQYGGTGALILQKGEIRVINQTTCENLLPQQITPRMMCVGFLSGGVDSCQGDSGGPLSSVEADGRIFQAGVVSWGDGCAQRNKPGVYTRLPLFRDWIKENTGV

B1: Human RAP (ligand)
chain: YSREKNQPKPSPKRESGEEFRMEKLNQLWEKAQRLHLPPVRLAELHADLKIQERDELAWKKLKLDGLDEDGEKEARLIRNLNVILAKYGLDGKKDARQVTSNSLSGTQEDGLDDPRLEKLWHKAKTSGKFSGEELDKLWREFLHHKEKVHEYNVLLETLSRTEEIHENVISPSDLSDIKGSVLHSRHTELKEKLRSINQGLDRLRRVSHQGYSTEAEFEEPRVIDLWDLAQSANLTDKELEAFREELKHFEAKIEKHNHYQKQLEIAHEKLRHAESVGDGERVSRSREKHALLEGRTKELGYTVKKHLQDLSGRISRARHNEL
For B1, the EC50 [1] was 0.3 nM, the EC50 [2] was 0.5 nM and the fold better EC50 than monomeric mRAPc peptide [2] was 64 fold.

B2: Heptide (peptide)
peptide: CGKHFEAKIEKHNHYQKQLEIAHEKLRHAESVGDAERVSRSREKHALLEGRTKELGYTVKKHLQDACG
modifications: disulfide 1-67
With B2 the Kd [3] was 3.5 nM.

B3: mRAP-8c (peptide)
peptide: CGKHFEAKIEKHNHYQKQLEIAHEKLRHAESVGDGERVSRSREKHALLEGRTKELGYTVKKHLQDGC
modifications: disulfide 1-67
Work on B3 yielded a Kd [3] of 4 to 6 nM.

B4: wild-type RAP displayed on M13 phage (ligand)
chain: YSREKNQPKPSPKRESGEEFRMEKLNQLWEKAQRLHLPPVRLAELHADLKIQERDELAWKKLKLDGLDEDGEKEARLIRNLNVILAKYGLDGKKDARQVTSNSLSGTQEDGLDDPRLEKLWHKAKTSGKFSGEELDKLWREFLHHKEKVHEYNVLLETLSRTEEIHENVISPSDLSDIKGSVLHSRHTELKEKLRSINQGLDRLRRVSHQGYSTEAEFEEPRVIDLWDLAQSANLTDKELEAFREELKHFEAKIEKHNHYQKQLEIAHEKLRHAESVGDGERVSRSREKHALLEGRTKELGYTVKKHLQDLSGRISRARAEAETG
B4 showed a fold enrichment after one round of panning (LRP1 CR3-5 (human) [4]) of 7 fold.

B5: mRAP-14c (peptide)
peptide: CEAKIEKHNHYQKQLEIAHEKLRHAESVGDGERVSRSREKHALLEGRTKELGYTVKKHGC
modifications: disulfide 1-60
Work on B5 yielded a Kd [3] of 21 nM.

B6: tag-free RAP d3 peptide linked to maleimide-PEO2-biotin (ligand)
chain: LDRLRRVSHQGYSTEAEFEEPRVIDLWDLAQSANLTDKELEAFREELKHFEAKIEKHNHYQKQLEIAHEKLRHAESVGDGERVSRSREKHALLEGRTKELGYTVKKHLQDLSGRISRARC
modifications: maleimide-PEO2-biotin on the unique C-terminal cysteine
With B6 the Kd [5] was 8 nM.

B7: MatRAP1 truncated variant, amino acids 243-313 (ligand)
chain: FREELKHFGAKIERHNHYQKQLEIAHEWLRHAESVGDGERVSRSREKHALLEGRTKELGYTVKKHLQDLSG
B7 gave a fold increase in binding affinity over MatRAP1 N-42 (MAT CR23 (human) [6]) of 4 fold and a fold increase in binding affinity over full-length MatRAP1 d3 (MAT CR23 (human) [6]) of 12 fold.

B8: truncated 320RAP1, amino acids 243-313 (ligand)
chain: FREELKHFEAKIESHNHYQKQLEIAHESMRHAESVGYGERMSRSREKHALLEGRTKELGYTVTMHLQDLSG
B8 gave a fold improvement in affinity over the full-length variant (8D6 CR12 (human)) of 3.5 fold.

B9: RAP d3 (ligand)
chain: LDRLRRVSHQGYSTEAEFEEPRVIDLWDLAQSANLTDKELEAFREELKHFEAKIEKHNHYQKQLEIAHEKLRHAESVGDGERVSRSREKHALLEGRTKELGYTVKKHLQDLSGRISRAR
Work on B9 yielded a binding as percent of that for LRP1 CR3-5 (MAT CR23 (human) [7]) of less than 5%, a Kd (LRP1 CR3-5 (human) [8]) of 11 nM and a Kd (LRP2 CR89 (human) [9]) greater than 300 nM. For the same binder, the binding as percent of that for LRP1 CR3-5 (LRP2 CR3536 (human)) was less than 5%, the binding as percent of that for LRP1 CR3-5 (LRP2 CR34-36 (human)) was less than 5% and the Kd (LRP1 CR3-5 (human) [10]) was 16 nM.

B10: MegaRAP1 d3 (ligand)
chain: LDRLRRVSHQGYTTEAKFEEPRVIDLWDLAQSANLTDKELEAFREELKYFKAKIEAHNHYQKQLEIAHEELRHAESVGDGERVSRSREKHALLEGRTKELGYTVKKHLQDLSGRISRAR
B10 gave a fold loss of affinity relative to LRP2 CR89 (LRP2 CR89 R1088D (human)) of 2 fold and a Kd (LRP2 CR89 (human) [11]) of 38 nM.

B11: MegaRAP1 d3 E270K (ligand)
chain: LDRLRRVSHQGYTTEAKFEEPRVIDLWDLAQSANLTDKELEAFREELKYFKAKIEAHNHYQKQLEIAHEKLRHAESVGDGERVSRSREKHALLEGRTKELGYTVKKHLQDLSGRISRAR
B11 gave a Kd (LRP1 CR3-5 (human) [10]) of 142 nM and a Kd (LRP2 CR89 (human) [11]) of 8 nM.

B12: RAP d3 E251K, K256A, K270E (ligand)
chain: LDRLRRVSHQGYSTEAEFEEPRVIDLWDLAQSANLTDKELEAFREELKHFKAKIEAHNHYQKQLEIAHEELRHAESVGDGERVSRSREKHALLEGRTKELGYTVKKHLQDLSGRISRAR
Binder B12 has a Kd (LRP2 CR89 (human) [9]) of 114 nM.

B13: MegaRAP1 d3 double revertant A256K, E270K (ligand)
chain: LDRLRRVSHQGYTTEAKFEEPRVIDLWDLAQSANLTDKELEAFREELKYFKAKIEKHNHYQKQLEIAHEKLRHAESVGDGERVSRSREKHALLEGRTKELGYTVKKHLQDLSGRISRAR
For B13, the fold improvement in affinity against the E270K single-site revertant (LRP1 CR3-5 (human) [10]) was 30 fold and the fold loss of affinity against the E270K single-site revertant (LRP2 CR89 (human) [11]) was 2 fold.

B14: MegaRAP1 d3 double revertant K251E, E270K (ligand)
chain: LDRLRRVSHQGYTTEAKFEEPRVIDLWDLAQSANLTDKELEAFREELKYFEAKIEAHNHYQKQLEIAHEKLRHAESVGDGERVSRSREKHALLEGRTKELGYTVKKHLQDLSGRISRAR
In the case of B14, the fold difference in affinity against the single-site E270K revertant (LRP2 CR89 (human) [11]) is reported as 20 fold.

B15: MatRAP1 N-42 (ligand)
chain: FREELKHFGAKIERHNHYQKQLEIAHEWLRHAESVGDGERVSRSREKHALLEGRTKELGYTVKKHLQDLSGRISRAR
For B15, the fold increase in affinity over the full-length d3 variant (MAT CR23 (human) [6]) was 3 fold.

B16: MatRAP1 N-42 without the C-terminal linker and affinity tag (ligand)
chain: FREELKHFGAKIERHNHYQKQLEIAHEWLRHAESVGDGERVSRSREKHALLEGRTKELGYTVKKHLQDLSGRISRAR
For B16, the fold increase in binding affinity over MatRAP1 N-42 (MAT CR23 (human) [6]) was 2 fold and the fold increase in binding affinity over full-length MatRAP1 d3 (MAT CR23 (human) [6]) was 6 fold.
